According to the supplement of paper PMC10567573:
± gives the standard deviation.

Assay: protein stability index of a GFP-peptide fusion (GPS, HEK-293T) (PSI 1-6); higher = more stable
[1] = treatment: DMSO, c terminus: a fixed tail appended
[2] = treatment: MLN4924 1 uM, 8 h, c terminus: a fixed tail appended
[3] = treatment: DMSO, c terminus: native
[4] = treatment: MLN4924 1 uM, 8 h, c terminus: native
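Note: 24-mer peptide tiles fused after GFP, lentivirally expressed, FACS-sorted into six equal bins by GFP/DsRed ratio, decoded by Illumina sequencing, PSI is the read-weighted mean bin number.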

Sequence VWDMRSGQCVQAFETHESDINSVR [GNB5] has a protein stability index [1] of 3.48 ± 0.24 and a protein stability index [2] of 3.56 ± 0.15.

Work on KKQPWWRKLFGQESGPSAEKYSVA [FUNDC2] yielded a protein stability index [1] of 3.1 ± 0.16 and a protein stability index [2] of 3.32 ± 0.35.

VSFVERILKSQKERQCALRVFKAR [FBXO39] gave a protein stability index [1] of 2.35 ± 0.41 and a protein stability index [2] of 2.55 ± 0.21.

For LKYIGMAKREINKLLKQKEKKNE [ARL6IP1], the protein stability index [3] was 3.7 ± 0.17 and the protein stability index [4] was 3.83 ± 0.31.

Sequence RQPRDELERVRVSCTIIFLASIFQ [TMEM175] has a protein stability index [1] of 2.11 ± 0.15 and a protein stability index [2] of 2.17 ± 0.28.

Sequence VHTEFTLRNFNSAKDMKKAVAHMK [MATN2] has a protein stability index [1] of 3.95 ± 0.17 and a protein stability index [2] of 4.03 ± 0.22.

GKETMCTVDGLHFNSTYNARVKAF [TRIM9] showed a protein stability index [1] of 3.1 ± 0.37 and a protein stability index [2] of 3.08 ± 0.23.

EEENDYRNLDASPTYKGLLMSLQN [CEP70] showed a protein stability index [1] of 3.67 ± 0.18 and a protein stability index [2] of 3.63 ± 0.34.

With KECGKVFSQSAGLIQHQRIHKGEK [ZSCAN9] the protein stability index [1] was 4.42 ± 0.16 and the protein stability index [2] was 4.48 ± 0.3.

FVLFLFAYLVTVRGNLSILAAVLV [OR3A1] gave a protein stability index [1] of 3.21 ± 0.52 and a protein stability index [2] of 3.33 ± 0.34.

Work on AISLSTGRESYIPGICVARVYHGW [SLA] yielded a protein stability index [1] of 2.92 ± 0.85 and a protein stability index [2] of 2.48 ± 0.92.

For KQQIANLDKQAKLSRAYDGTTYLP [USP39], the protein stability index [1] was 3.62 ± 0.19 and the protein stability index [2] was 3.87 ± 0.41.

Sequence QTPTKEELDAIIEEVDEDGSGTID [TNNC2] has a protein stability index [1] of 5.67 ± 0.44 and a protein stability index [2] of 5.16 ± 0.28.

With DIASRYPTLWTEQVKSRQNKTNKN [SMOC2] the protein stability index [1] was 3.98 ± 0.18 and the protein stability index [2] was 4.36 ± 0.33.

Work on LALEEPVDYKQSVLNVAGEAGGKQ [SLC6A17] yielded a protein stability index [1] of 4.91 ± 0.45 and a protein stability index [2] of 5.32 ± 0.14.

In the case of STSQGCAQPQGAPCCSSSPEEPLN [FEM1A], the protein stability index [1] is reported as 5.37 ± 0.23 and the protein stability index [2] is reported as 5.32 ± 0.15.

With LHRGQLSLFCLEDKELLCCSCQAD [TRIM35] the protein stability index [1] was 2.68 ± 0.1 and the protein stability index [2] was 2.79 ± 0.31.

For FVCQCFEGYILREDGKTCRRKDVC [MATN2], the protein stability index [1] was 1.99 ± 0.39 and the protein stability index [2] was 3.09 ± 0.092.

With LYKALGAQDLTEAEGWHFFCFQGE [SAT2] the protein stability index [1] was 2.5 ± 0.27 and the protein stability index [2] was 2.29 ± 0.43.

For APEYRGRTELLKDAIGEGKVTLRI [MOG], the protein stability index [1] was 2.59 ± 0.2 and the protein stability index [2] was 2.72 ± 0.38.

Work on TGEFLKLPFERLAFVLSSNSLKHC [KLHL13] yielded a protein stability index [1] of 2.55 ± 0.73 and a protein stability index [2] of 2.85 ± 0.52.

In the case of PVDGARYRWQGRRWEPSGKAEPRL [TBX6], the protein stability index [1] is reported as 3.68 ± 0.41 and the protein stability index [2] is reported as 3.86 ± 0.76.

DETFLATSFLQHPWDESGSGCLPP [FOXJ1] showed a protein stability index [1] of 4.15 ± 0.16 and a protein stability index [2] of 4.11 ± 0.079.

With IITVTLNMEKYNFLGISIVGQSNE [DVL3] the protein stability index [1] was 3.15 ± 0.69 and the protein stability index [2] was 3.04 ± 0.4.

RGMATKLLARPGTGEHREFKLDKK [FBF1] gave a protein stability index [1] of 4.47 ± 0.33 and a protein stability index [2] of 4.62 ± 0.13.

With FTTFFIDCMAALGLAYDRKKVSKA [SCD] the protein stability index [1] was 2.07 ± 0.32 and the protein stability index [2] was 2.26 ± 0.53.

Sequence LEDYINDRQYDSRGRFGELLLLLP [HNF4A] has a protein stability index [1] of 2.19 ± 0.32 and a protein stability index [2] of 2.22 ± 0.2.

For FSRVVHLYRNGKDQDGDQAPEYRG [MOG], the protein stability index [1] was 3.77 ± 0.21 and the protein stability index [2] was 3.88 ± 0.34.

In the case of VGLAVVNGQLMAVGGFDGTTYLKT [KLHL20], the protein stability index [1] is reported as 2.69 ± 0.54 and the protein stability index [2] is reported as 2.23 ± 0.19.

With PAGVGVVVEATHMCMVMRGVQKMN [GCH1] the protein stability index [1] was 2.41 ± 0.23 and the protein stability index [2] was 2.32 ± 0.34.

In the case of FIPECNDDGTYSQVQCHSYTGYCW [SMOC2], the protein stability index [1] is reported as 2.79 ± 1 and the protein stability index [2] is reported as 2.27 ± 0.45.

With SSMLTGILWDTLLRLCAWGLASWP [POMT2] the protein stability index [1] was 3.12 ± 0.62 and the protein stability index [2] was 2.66 ± 0.61.

MASPPRCSPTAHDRECKLPPPSAP [WDR88] gave a protein stability index [1] of 4.67 ± 0.25 and a protein stability index [2] of 4.83 ± 0.24.

For DSGVGKSNLLSRFTRNEFNLESKS [RAB11A], the protein stability index [1] was 4.03 ± 0.11 and the protein stability index [2] was 4.08 ± 0.21.

EISGPLTSANKITLVSSGSGTMGA [FLOT1] gave a protein stability index [1] of 3.46 ± 0.046 and a protein stability index [2] of 3.5 ± 0.26.

ADRAQKMDGESEEEQESVDTGEEE [EHMT1] gave a protein stability index [1] of 5.78 ± 0.16 and a protein stability index [2] of 5.73 ± 0.32.

In the case of ILAVSFAPLIQPCHSESGKSRLVQ [PCMTD2], the protein stability index [1] is reported as 2.23 ± 0.59 and the protein stability index [2] is reported as 1.93 ± 0.25.

LPLRVSFCPLSLWRWQLYAAQSTK [CLPTM1] showed a protein stability index [1] of 2.31 ± 0.29 and a protein stability index [2] of 2.24 ± 0.7.

In the case of MNELQHDLDVVSDALAKVSRKPSI [TPH1], the protein stability index [1] is reported as 4.27 ± 0.22 and the protein stability index [2] is reported as 4.42 ± 0.32.

With DWVSDWSSRPENIPPKEFHFRHPK [BNIP3L] the protein stability index [1] was 3.79 ± 0.27 and the protein stability index [2] was 3.68 ± 0.093.

Work on AAASPYIRTKLNYNPPKDDGSTYK [GAN] yielded a protein stability index [1] of 3.98 ± 0.11 and a protein stability index [2] of 3.79 ± 0.2.

For YLRSKLCSLYENDCIFDKFECAWN [PPP2R2C], the protein stability index [1] was 2.81 ± 0.57 and the protein stability index [2] was 2.61 ± 0.66.

Sequence KRSQSMKSYPSSELRNMCDEHIAS [CLCN6] has a protein stability index [1] of 4.56 ± 0.34 and a protein stability index [2] of 4.734 ± 0.012.

In the case of VRYSDCCERVVINVSGLRFETQMK [KCNA4], the protein stability index [1] is reported as 2.31 ± 0.46 and the protein stability index [2] is reported as 2.33 ± 0.37.

Work on SRAPQLHLEYRFYKQLGSAGEGLP [CSNK1G1] yielded a protein stability index [1] of 2.73 ± 0.44 and a protein stability index [2] of 2.84 ± 0.19.

HSFNFVLSANLHGGAVVANYPYDK [CPN1] gave a protein stability index [1] of 2.19 ± 0.44 and a protein stability index [2] of 2.4 ± 0.2.

In the case of RNLGKVVHYAKVQLRFQHSQDVSD [PLEKHN1], the protein stability index [1] is reported as 2.49 ± 0.44 and the protein stability index [2] is reported as 2.6 ± 0.33.

In the case of PFREILCKKLHIPLKAQNDLDISR [P2RY14], the protein stability index [1] is reported as 2.39 ± 0.12 and the protein stability index [2] is reported as 2.46 ± 0.29.

Sequence CTHCSKSFRQRAGLIMHQVTHFRG [ZNF449] has a protein stability index [1] of 2.46 ± 0.53 and a protein stability index [2] of 3.02 ± 0.52.

With YDIEVNTRRAQADLAYQLQVAKTK [FLOT1] the protein stability index [1] was 4.35 ± 0.18 and the protein stability index [2] was 4.33 ± 0.19.

AAKIIPHSRVAKPHQREKIDKEIE [PLK2] gave a protein stability index [1] of 5.02 ± 0.42 and a protein stability index [2] of 4.7 ± 0.4.

SEKSQREDEEEEEGENYQKGERGE [CHGB] showed a protein stability index [1] of 5.48 ± 0.28 and a protein stability index [2] of 5.58 ± 0.28.

GLEALAGGDLMPAPADPTAREGLA [FCHO1] gave a protein stability index [1] of 5.2 ± 0.15 and a protein stability index [2] of 5.23 ± 0.21.

Work on TQESTFQELCEGLLEESDGEGEPG [NOP53] yielded a protein stability index [1] of 5.59 ± 0.22 and a protein stability index [2] of 5.51 ± 0.22.

In the case of KDEEGRLRDPATITTLRVPVLRPM [PPP2R2B], the protein stability index [1] is reported as 3.78 ± 0.23 and the protein stability index [2] is reported as 4.04 ± 0.26.

Work on SPRRVGFVGAGRMAGAIAQGLIRA [PYCR3] yielded a protein stability index [1] of 2.66 ± 0.15 and a protein stability index [2] of 2.78 ± 0.14.

Sequence PGKYFSAAEYHAQRLKAVIVIQTY [IQUB] has a protein stability index [1] of 2.81 ± 0.32 and a protein stability index [2] of 2.5 ± 0.66.

In the case of GEPRKLLTQDWVQENYLEYRQVPG [MAGEA10], the protein stability index [1] is reported as 3.62 ± 0.17 and the protein stability index [2] is reported as 4.15 ± 0.3.

SAFGNVKLVVHDCPVWDIFDSDWY [RHOBTB3] showed a protein stability index [1] of 2.17 ± 0.33 and a protein stability index [2] of 2.2 ± 0.12.

Sequence PGVAYPAFLGPDEAFALPDSLLVV [SPSB4] has a protein stability index [1] of 2.76 ± 0.49 and a protein stability index [2] of 2.21 ± 0.13.

With LCDVVLVVGAKKIYAHRVILSACS [KLHL20] the protein stability index [1] was 2.7 ± 0.29 and the protein stability index [2] was 2.74 ± 0.39.

NLETNEWRYVSSLPQPLAAHAGAV [KLHL14] showed a protein stability index [1] of 2.64 ± 0.36 and a protein stability index [2] of 2.87 ± 0.37.

For MKIFREKIEDFREEMWTFRGKIHA [CCDC70], the protein stability index [1] was 2.07 ± 0.26 and the protein stability index [2] was 2.39 ± 0.43.

Sequence RLTREVEATRRALIDRMVNLHQA [DDIT3] has a protein stability index [3] of 3.44 ± 0.073 and a protein stability index [4] of 3.83 ± 0.32.

Work on WLLLLTRGLVGVGEASYSTIAPTL [SPNS1] yielded a protein stability index [1] of 2.67 ± 0.44 and a protein stability index [2] of 2.83 ± 0.32.
